US20120238494A1 (published 2012)
Each block holds one molecule with its values, some of them ahead of it. Numbered stars: 1 amine (or outer) side, 2 acyl side, 3 side chain; on linkers, the order of the positions; unused ones are H or OH. Square brackets hold non-standard residues; d marks the D form. dSer(tBu) = CC(C)(C)OC[C@@H](N[*:1])C(=O)[*:2]; pGlu = O=C1CC[C@@H](C(=O)O)N1; azaGly = NNC(=O)O

Assays:
[1] = molecular target: T1, human GnRH receptor (human, UniProt P30968 1-328); experiment: cell-based or functional assay
T1 construct: whole, on cells; Endogenous receptor; also called LHRH receptor; human pituitary GnRH receptor
T1 sequence (looked up): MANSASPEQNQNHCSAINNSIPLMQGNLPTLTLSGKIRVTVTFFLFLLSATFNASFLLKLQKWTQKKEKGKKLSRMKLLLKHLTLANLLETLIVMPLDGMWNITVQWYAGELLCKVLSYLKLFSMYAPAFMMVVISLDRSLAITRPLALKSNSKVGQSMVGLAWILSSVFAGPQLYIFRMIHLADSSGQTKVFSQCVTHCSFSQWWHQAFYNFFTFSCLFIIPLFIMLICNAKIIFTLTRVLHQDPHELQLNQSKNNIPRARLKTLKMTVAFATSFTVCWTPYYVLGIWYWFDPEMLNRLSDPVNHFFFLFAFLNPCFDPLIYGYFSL

[2] = molecular target: T2, rat GnRH receptor (rat pituitaries) (rat, UniProt P30969 1-327); experiment: radioligand binding, displacement curves, rat pituitaries (control)
T2 construct: whole, on cells; Endogenous receptor of rat pituitary tissue, used as the control preparation
T2 sequence (looked up): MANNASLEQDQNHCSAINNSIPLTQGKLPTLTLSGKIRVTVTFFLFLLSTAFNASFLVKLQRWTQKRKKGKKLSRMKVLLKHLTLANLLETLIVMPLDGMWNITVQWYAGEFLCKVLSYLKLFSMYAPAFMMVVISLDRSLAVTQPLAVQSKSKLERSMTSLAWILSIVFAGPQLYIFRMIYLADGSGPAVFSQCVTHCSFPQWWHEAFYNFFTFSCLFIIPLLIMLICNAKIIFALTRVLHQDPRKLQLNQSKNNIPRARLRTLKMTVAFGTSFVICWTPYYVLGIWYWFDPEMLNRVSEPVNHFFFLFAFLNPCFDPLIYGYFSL

[3] = molecular target: T1, human GnRH receptor; experiment: radioligand binding, displacement curves, BLM human melanoma cell membranes
[4] = molecular target: T1, human GnRH receptor; experiment: radioligand binding, displacement curves, ME15392 human melanoma cell membranes

inhibition of MV3 melanoma cell proliferation at 10^-4 M [1]: 15%
inhibition of MV3 melanoma cell proliferation at 10^-5 M [1]: 35%
stimulation of MV3 melanoma cell growth at 10^-6 M [1]: 40%
Molecule: Antide, a LHRH antagonist (Sigma Chemical Co., No. A8802) (peptide)

decrease of U-87MG cell proliferation at 10^-6 M [1]: 28%
inhibition of U-87MG cell proliferation at 10^-5 M [1]: 30%
Molecule: GnRH antagonist Cetrorelix (peptide)

inhibition of MV3 melanoma cell proliferation at 10^-4 M, 10^-5 M and 10^-6 M, from day 4 on [1]: 15%
Molecule: Triptorelin, an LHRH agonist (Sigma Chemical Co., No. L9761) (peptide)

Kd [2]: 1.5 to 2 nM
Kd [3]: 0.7 to 1.1 nM
Kd [4]: 0.1 to 0.6 nM
B1: GnRH agonist LHRH-A, ZOLADEX [D-Ser(tBu)^6Aza-Gly-LHRH] (peptide)
peptide: [pGlu]HWSY[dSer(tBu)]LRP[azaGly]-NH2
modifications: also: 125I-labelled tracer form, position not given here
notes: the unlabelled form was used in the cell assays; also called Goserelin
